Data: publication PMC6172220, “Calcineurin B homologous protein 3 binds with high affinity to the CHP binding domain of the human sodium/proton exchanger NHE1” (Scientific Reports, 2006)
Values joined by “and” are separate entries in the source; they are usually repeats but may differ in a detail not shown here. Identical values can stand only once.

B1: human calcineurin B homologous protein 3 (CHP3), hexa-histidine tagged (natural protein, UniProt Q96BS2 2-214, looked up)
chain: GAAHSASEEVRELEGKTGFSSDQIEQLHRRFKQLSGDQPTIRKENFNNVPDLELNPIRSKIVRAFFDNRNLRKGPSGLADEINFEDFLTIMSYFRPIDTTMDEEQVELSRKEKLRFLFHMYDSDSDGRITLEEYRNVVEELLSGNPHIEKESARSIADGAMMEAASVCMGQMEPDQVYEGITFEDFLKIWQGIDIETKMHVRFLNMETMALCH
B2: MBP-CBD: CHP-binding region of human NHE1 (residues 503-545) fused to maltose-binding protein at its amino-terminus (domain or fragment, UniProt P19634 503-545, looked up)
chain: VDLLAVKKKQETKRSINEEIHTQFLDHLLTGIEDICGHYGHHH
notes: also called MBP-CBD^NHE1; NHE1-CBD; source: E. coli BL21 (DE3), purified (IMAC, SEC on Superdex 200); not shown: MBP, N-terminal, kept; His8, C-terminal, kept
B3: human calcineurin B homologous protein 3 (CHP3), hexa-histidine tagged (natural protein, UniProt Q96BS2 2-214, looked up)
chain: GAAHSASEEVRELEGKTGFSSDQIEQLHRRFKQLSGDQPTIRKENFNNVPDLELNPIRSKIVRAFFDNRNLRKGPSGLADEINFEDFLTIMSYFRPIDTTMDEEQVELSRKEKLRFLFHMYDSDSDGRITLEEYRNVVEELLSGNPHIEKESARSIADGAMMEAASVCMGQMEPDQVYEGITFEDFLKIWQGIDIETKMHVRFLNMETMALCH
modifications: fluorescent label NT647, randomly attached, labelling efficiency about 30% (MST only)
B4: MBP-CBD: CHP-binding region of human NHE1 (residues 503-545) fused to maltose-binding protein (domain or fragment, UniProt P19634 503-545, looked up)
chain: VDLLAVKKKQETKRSINEEIHTQFLDHLLTGIEDICGHYGHHH
notes: The TEV site is printed without Tyr; No site for removal of the C-terminal His8 is described; also called MBP-CBD^NHE1; NHE1-CBD; source: E. coli BL21 (DE3), purified (IMAC, SEC); not shown: MBP (E. coli malE; UniProtKB P0AEX9 residues 27-393), N-terminal, kept

Experiments:
Details in all cases: both partners purified
[1] = molecular target: B2; assay: ITC; the same titrations (CHP3 in the syringe, MBP-CBD in the cell, 25 °C, ITC buffer pH 7.2) refitted one by one after the triple-shift correction: corrected active concentrations of CHP3 and MBP-CBD, dH fixed to the average of the raw fits, n = 1 by the correction
[2] = molecular target: B2; assay: ITC; CHP3 (nominal 200 uM) in the syringe injected into MBP-CBD (nominal 20 uM) in the cell, 57 injections, 25 °C; 20 mM HEPES, 150 mM NaCl, 10 mM MgCl2, 5 mM TCEP, pH 7.2; biological triplicates, raw data: each data set fitted freely (KD, dH, n, offset)
[3] = molecular target: B1; assay: ITC; the same titrations (CHP3 in the syringe, MBP-CBD in the cell, 25 °C, ITC buffer pH 7.2) refitted one by one after the triple-shift correction: corrected active concentrations of CHP3 and MBP-CBD, dH fixed to the average of the raw fits, n = 1 by the correction
[4] = molecular target: B1; assay: ITC; CHP3 (nominal 200 uM) in the syringe injected into MBP-CBD (nominal 20 uM) in the cell, 57 injections, 25 °C; 20 mM HEPES, 150 mM NaCl, 10 mM MgCl2, 5 mM TCEP, pH 7.2; biological triplicates, raw data: each data set fitted freely (KD, dH, n, offset)
[5] = molecular target: B4; assay: SEC; analytical SEC, Superdex 200 10/300 GL; 20 uM samples mixed equimolar (250 ul each); 20 mM HEPES, 150 mM NaCl, 1 mM TCEP, pH 7.2; peak fractions checked by SDS-PAGE
[6] = molecular target: B3; assay: MST; NT647-labelled CHP3 at 10 nM, MBP-CBD titrated in 16 steps of 1:1 dilution; 20 mM HEPES, 150 mM NaCl, 0.05% Tween-20, 10 mM MgCl2, 5 mM TCEP, pH 7.2; 22 °C; bimolecular binding model; three biological replicates of five technical replicates each
[7] = molecular target: B3; assay: ITC; 200 uM CHP3 in the syringe injected into 20 uM MBP-CBD in the cell, 57 injections, 25 °C; 20 mM HEPES, 150 mM NaCl, 10 mM MgCl2, 5 mM TCEP, pH 7.2; global fit of three concentration-corrected biological replicates assuming n = 1

B1
stoichiometry N [1]: 1 | stoichiometry N [2]: 0.97 and 1.2 and 1.1 and 1.09

B2
Kd [3]: 3.1 nM and 2.1 nM and 5.1 nM and 3.4 nM | Kd [4]: 3 nM and 2.4 nM and 4.5 nM and 3.3 nM

B3
stoichiometry N [5]: 1

B4
Kd [6]: 62.7 nM and 54.8 nM and 49 nM and 55.5 nM | Kd [7]: 3 nM
